Assay results reported in patent publication US20160376339A1 (CURACLE, published 2016).
Values belong to the binder of their own block, whether it stands above or below them. Where no end group is shown, it is not given here.

Assays:
[1] = molecular target: T1, His-tagged PH domain of PDK1 (purified) (UniProt O15530 409-556, limits assumed); experiment: Far-western analysis and GST pull-down with purified proteins
T1 construct: domain: PH domain; Expressed in E. coli BL21 and purified on Ni2+-NTA-agarose; also called His-PH; His-tagged PDK1PH; not shown: His tag from vector pET32a
T1 sequence (looked up): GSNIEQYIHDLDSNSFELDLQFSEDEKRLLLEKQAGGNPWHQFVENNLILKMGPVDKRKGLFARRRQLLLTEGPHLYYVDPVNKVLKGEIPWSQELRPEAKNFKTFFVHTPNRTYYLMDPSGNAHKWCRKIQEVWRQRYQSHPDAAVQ

[2] = molecular target: T2, Flag-PDK1 (UniProt O15530 1-556, limits assumed); experiment: co-immunoprecipitation of GFP-tagged truncated AMIGO2 with Flag-PDK1
T2 construct: Expressed in HEK293T cells for co-immunoprecipitation; not shown: Flag tag
T2 sequence (looked up): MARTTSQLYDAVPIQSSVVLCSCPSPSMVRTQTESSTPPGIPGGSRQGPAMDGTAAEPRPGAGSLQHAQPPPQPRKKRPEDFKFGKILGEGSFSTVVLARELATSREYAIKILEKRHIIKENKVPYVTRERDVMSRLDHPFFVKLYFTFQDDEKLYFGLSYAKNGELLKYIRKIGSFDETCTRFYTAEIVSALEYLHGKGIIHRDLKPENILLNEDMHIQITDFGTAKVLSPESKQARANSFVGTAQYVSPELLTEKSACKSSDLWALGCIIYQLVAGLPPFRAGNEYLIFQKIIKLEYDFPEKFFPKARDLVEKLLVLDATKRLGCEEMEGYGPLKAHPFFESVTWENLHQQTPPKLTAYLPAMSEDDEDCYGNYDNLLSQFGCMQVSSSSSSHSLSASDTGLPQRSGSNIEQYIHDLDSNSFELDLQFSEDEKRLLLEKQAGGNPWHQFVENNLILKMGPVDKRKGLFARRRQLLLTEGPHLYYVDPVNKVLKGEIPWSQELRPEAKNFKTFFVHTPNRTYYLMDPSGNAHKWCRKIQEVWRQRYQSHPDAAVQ

[3] = molecular target: T2, Flag-PDK1; experiment: co-immunoprecipitation of GFP-tagged deletion mutants with Flag-PDK1

- binding result [1]: no binding
B1: GST-tagged AMIGO2 420-464 (other)
chain: TPCPCKCKTKRQKNMLHQSNAHSSILSPGPASDASADERKAGAGK
modifications: cysteine pairing not given here; also: GST tag of pGEX 4T1 (sequence not given here)
notes: Same forward primer and linker as GST-CD; not shown: glutathione S-transferase tag of vector pGEX 4T1

- binding result [2]: no binding
B2: AMIGO2^457aa (GFP-tagged AMIGO2 truncated after residue 457) (receptor)
chain: VCPTACICATDIVSCTNKNLSKVPGNLFRLIKRLDLSYNRIGLLDSEWIPVSFAKLNTLILRHNNITSISTGSFSTTPNLKCLDLSSNKLKTVKNAVFQELKVLEVLLLYNNHISYLDPSAFGGLSQLQKLYLSGNFLTQFPMDLYVGRFKLAELMFLDVSYNRIPSMPMHHINLVPGKQLRGIYLHGNPFVCDCSLYSLLVFWYRRHFSSVMDFKNDYTCRLWSDSRHSRQVLLLQDSFMNCSDSIINGSFRALGFIHEAQVGERLMVHCDSKTGNANTDFIWVGPDNRLLEPDKEMENFYVFHNGSLVIESPRFEDAGVYSCIAMNKQRLLNETVDVTINVSNFTVSRSHAHEAFNTAFTTLAACVASIVLVLLYLYLTPCPCKCKTKRQKNMLHQSNAHSSILSPGPASDASADE
notes: The range 1-457 is read from the name and from the reverse primer with its stop codon; also called 457aa construct; not shown: EGFP tag

- binding result [3]: no binding
B3: AMIGO2^ΔCD (GFP-tagged AMIGO2 with residues 420-522 deleted) (receptor)
chain: VCPTACICATDIVSCTNKNLSKVPGNLFRLIKRLDLSYNRIGLLDSEWIPVSFAKLNTLILRHNNITSISTGSFSTTPNLKCLDLSSNKLKTVKNAVFQELKVLEVLLLYNNHISYLDPSAFGGLSQLQKLYLSGNFLTQFPMDLYVGRFKLAELMFLDVSYNRIPSMPMHHINLVPGKQLRGIYLHGNPFVCDCSLYSLLVFWYRRHFSSVMDFKNDYTCRLWSDSRHSRQVLLLQDSFMNCSDSIINGSFRALGFIHEAQVGERLMVHCDSKTGNANTDFIWVGPDNRLLEPDKEMENFYVFHNGSLVIESPRFEDAGVYSCIAMNKQRLLNETVDVTINVSNFTVSRSHAHEAFNTAFTTLAACVASIVLVLLYLYL
notes: The range 1-419 is derived from it; also called AMIGO2 without cytosolic Domain; not shown: EGFP tag

- binding result [1]: no binding
B4: GST-tagged AMIGO2 420-454 (other)
chain: TPCPCKCKTKRQKNMLHQSNAHSSILSPGPASDAS
modifications: cysteine pairing not given here; also: GST tag of pGEX 4T1 (sequence not given here)
notes: as for B1
